Results from patent US20230045791A1 (HIFIBIO, published 2023).

B1: HFB3-1-hG1 (mouse monoclonal antibody) (antibody, human IgG1, kappa, V domains shown)
VH: EFQLQQSGPELVKPGASVKISCKASSYSFTDYNMNWVKQSNGKSLEWIGIIFPKYGTTSYNQKFKGKATLTVDQSSSTAYMQLNSLTSEDSAVYYCATDGGTWYFDVWGTGTTVTVSS
VL: QIVLTQSPALMSASPGEKVTMTCSASSSVTYMYWYQQKPRSSPKPWIYLTSNLASGVPARFSGSGSGTSYSLTISSMEAEDAATYYCQQWSSNPPTFGSGTKLEIKR
notes: also called human-mouse chimeric monoclonal antibody HFB3-1; parental HFB3-1-hG1
B2: HFB3-18-hG1 (mouse monoclonal antibody) (antibody, human IgG1, kappa, V domains shown)
VH: EVKLEESGGGLVQPGGSMKLSCAASGFTFSDAWMDWVRQSPEKGLEWVAEVRNKANNHATYYAESVKGRFTISRDDSKSSVYLQMNSLRAEDTGIYYCTRSVGGYGTTYWYFDVWGTGTTVTVSS
VL: DIVMTQSPSSLSVSAGEKVTMSCKSSQNLLNSGNQKNYLAWYQQKPGQPPKLLIFGASTRESGVPDRFTGSGSGTDFTLTISSVQAEDLAVYYCQSEHSYPYTFGGGTKLEIKR
notes: also called human-mouse chimeric monoclonal antibody HFB3-18
B3: HFB3-1hz6-hG1 (humanized monoclonal antibody) (antibody, V domains shown)
VH: QVQLVQSGAELKKPGASVKVSCKASSYSFTDYNMNWVRQAPGQSLEWMGIIFPKYGTTSYAQKLQGRVTLTTDTSTSTAYMELRSLRSDDTAVYYCATDGGTWYFDVWGTGTTVTVSS
VL: DIQLTQSPSFLSASVGDRVTITCRASSSVTYMYWYQQKPGKAPKPWIYLTSNLASGVPSRFSGSGSGTEYTLTISSLQPEDAATYYCQQWSSNPPTFGSGTKLEIKR
B4: HFB3-18hz1-hG1 (humanized monoclonal antibody) (antibody, V domains shown)
VH: EVQLVESGGGLVQPGGSLKLSCAASGFTFSDAWMDWVRQASGKGLEWVGEVRNKANNHATYYAASVKGRFTISRDDSKNTAYLQMNSLKTEDTAVYYCTRSVGGYGTTYWYFDVWGQGTTVTVSS
VL: DIVMTQSPDSLAVSLGERATINCKSSQNLLNSGNQKNYLAWYQQKPGQPPKLLIFGASTRESGVPDRFSGSGSGTDFTLTISSLQAEDVAVYYCQSEHSYPYTFGQGTKLEIKR
B5: HFB3-14hz1c-hG1 (humanized monoclonal antibody) (antibody, V domains shown)
VH: QVQLVQSGAEVKKPGSSVKVSCKASGYTFTDYYMNWVRQAPGQGLEWMGDINPNDGGTTYAQKFQGRVTITADESTSTAYMELSSLRSEDTAVYFCAREGNYYAYDVRVWYFDVWGQGTTVTVSS
VL: DIQMTQSPSSLSASVGDRVTITCGASQDIITYLNWYQQKPGKAVKLLIYSTSSLNSGVPSRFSGSGSGTDFTLTISSLQPEDFATYYCQQYSELPYTFGGGTKVELKR
notes: also called HFB3-141c-hG1

Key:
[1] = target: T1, His-tagged recombinant human TNFR1 (human, UniProt P19438 30-211, limits assumed); assay: ELISA, plate coated with 0.1 µg/mL His-tagged recombinant human TNFR1
T1 construct: also called rhTNFR1; hTNFR1-His; not shown: His tag
T1 sequence (looked up): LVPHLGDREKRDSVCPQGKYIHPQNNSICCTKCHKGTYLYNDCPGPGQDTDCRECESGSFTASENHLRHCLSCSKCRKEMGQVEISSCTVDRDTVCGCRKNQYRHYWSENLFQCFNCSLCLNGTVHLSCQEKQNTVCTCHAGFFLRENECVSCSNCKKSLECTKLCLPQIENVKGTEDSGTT
Method: (§1) Briefly, tissue culture plates were coated with either 0.1 μg/mL of His-tagged recombinant human TNFR2 or TNFR1 overnight at 4° C. The coated plates were then incubated for about 1 hour on ice with 1:3 serial dilutions of each test antibodies, with starting (highest) concentration of about 66 nM antibody. Antibodies bound to the cells were detected by using 1:5000 dilution of HRP-labeled anti-human Fc antibody and TMB substrate. Isotype matched negative control antibody F3, as well as the MR2-1 positive control antibody specific for rhTNFR2 and a positive control antibody specific for rhTNFR1 were also used in this assay. The data, including EC₅₀ values for each antibody, were compiled in FIG. 4A.

[2] = target: T2, human TNFR2 expressed on cells (CHO.hHFB3 / CHO.hTNFR2 cells; primary human T cells) (human, UniProt P20333 23-461); assay: flow cytometry on CHO cells expressing human TNFR2 (CHO.hHFB3), anti-human Fc-AF647 detection
T2 construct: whole, on cells
T2 sequence (looked up): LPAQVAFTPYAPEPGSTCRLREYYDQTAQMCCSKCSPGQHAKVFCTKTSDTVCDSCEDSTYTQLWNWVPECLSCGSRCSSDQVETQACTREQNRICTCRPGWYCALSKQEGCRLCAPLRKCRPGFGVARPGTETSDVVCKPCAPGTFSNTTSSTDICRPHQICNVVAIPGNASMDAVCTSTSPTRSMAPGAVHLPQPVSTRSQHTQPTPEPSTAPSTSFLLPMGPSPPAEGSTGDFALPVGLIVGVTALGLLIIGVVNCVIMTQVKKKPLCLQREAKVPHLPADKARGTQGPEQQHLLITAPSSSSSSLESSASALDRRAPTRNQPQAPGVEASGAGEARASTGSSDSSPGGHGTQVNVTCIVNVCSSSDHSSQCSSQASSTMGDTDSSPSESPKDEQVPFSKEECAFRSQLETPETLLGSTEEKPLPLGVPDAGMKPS
Method: (§2) These monoclonal antibodies were then tested for their abilities to bind human and monkey TNFR2 expressed by CHO cells (CHO.hHFB3 and CHO.mkHFB3 cells respectively). Briefly, about 40,000 CHO.hHFB3 or CHO.mkHFB3 cells were seeded in tissue culture wells, and serial 1:3 dilutions of each test antibodies, with starting (highest) concentration of about 66 nM antibody, were added to each cell type and incubated for about an hour. Antibodies bound to the cells were detected by using 17 nM of anti-human Fc antibody labeled by AF647 (ALEXSA FLUOR® 647 fluorescent dye). An isotype matched negative control antibody was also used in this assay. The data, including EC₅₀ values and Eₘₐₓ for each antibody, were compiled in FIG. 2A.

[3] = target: T3, His-tagged recombinant human TNFR2 (human, UniProt P20333 23-257); assay: ELISA, plate coated with 0.1 µg/mL His-tagged recombinant human TNFR2, HRP anti-human Fc
T3 construct: extracellular domain; also called rhTNFR2; hTNFR2-His; not shown: His tag
T3 sequence (looked up): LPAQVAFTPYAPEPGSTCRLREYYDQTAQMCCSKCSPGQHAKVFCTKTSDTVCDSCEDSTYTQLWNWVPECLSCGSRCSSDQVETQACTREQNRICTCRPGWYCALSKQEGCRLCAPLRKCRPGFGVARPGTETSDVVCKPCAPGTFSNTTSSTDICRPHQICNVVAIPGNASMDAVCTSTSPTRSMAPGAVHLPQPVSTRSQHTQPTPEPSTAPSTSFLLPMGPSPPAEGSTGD
Method: as §1

[4] = target: T4, mouse TNFR2 expressed on CHO cells (mouse, UniProt P25119 23-474); assay: flow cytometry on CHO cells expressing mouse TNFR2
T4 construct: whole, on cells; also called mouse ortholog
T4 sequence (looked up): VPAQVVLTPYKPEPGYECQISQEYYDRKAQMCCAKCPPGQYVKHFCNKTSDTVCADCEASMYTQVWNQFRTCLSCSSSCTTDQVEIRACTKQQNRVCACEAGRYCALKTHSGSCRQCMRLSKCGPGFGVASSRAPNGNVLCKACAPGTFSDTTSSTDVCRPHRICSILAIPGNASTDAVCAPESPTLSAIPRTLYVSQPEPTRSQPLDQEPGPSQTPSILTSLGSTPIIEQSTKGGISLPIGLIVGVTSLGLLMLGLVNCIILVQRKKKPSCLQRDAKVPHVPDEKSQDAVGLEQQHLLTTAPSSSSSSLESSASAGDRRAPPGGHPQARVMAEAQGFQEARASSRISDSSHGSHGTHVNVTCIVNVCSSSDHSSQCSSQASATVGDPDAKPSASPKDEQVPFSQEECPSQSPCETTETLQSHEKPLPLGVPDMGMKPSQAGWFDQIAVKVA
Method: as §2
The same experiments were also set up to test the ability of the test antibodies to bind CHO cells expressing mouse TNFR2 and the parental CHO cell lines (which may or may not express hamster TNFR2).

[5] = target: T3, His-tagged recombinant human TNFR2; assay: ELISA on recombinant hTNFR2-His (FIG. 14A)
[6] = target: T2, human TNFR2 expressed on cells …; assay: flow cytometry on CHO cells expressing human TNFR2 (FIG. 12A)
[7] = target: T1, His-tagged recombinant human TNFR1; assay: ELISA on recombinant hTNFR1-His

Binder | binding result [1] | binding result [2] | binding result [3] | binding result [4] | binding result [5] | binding result [6] | binding result [7]
B1 | no binding (tested: highest concentration about 66 nM) | binds | binds |  |  |  | 
B2 | no binding (tested: highest concentration about 66 nM) | binds | binds | binds |  |  | 
B3 |  |  |  |  | binds | binds | no binding
B4 |  |  |  |  | binds | binds | no binding
B5 |  |  |  |  |  |  | no binding
